Test results: patent publication US6537972B1, “Compositions and methods for inhibiting human immunodeficiency virus infection by down-regulating human cellular genes” (Subsidiary No. 3., Inc., priority 1997, dated 2003)

B1: CF-101: GSE; sense, identity with the gene for the ND2 subunit of human NADH dehydrogenase (nucleic acid)
sense: CATCAGCCCTTCTTAACATCTACTTCTACCTACGCCTAATCTACTCCACCTCAATCACACTACTCCCCATATCTAACAACGTAAAAATAAAATGACAGTTTGAGCATACAAAACCCACCCCATTCCTCCCCACACTCATCGCC
B2: CF-315: GSE; antisense of a sequence with identity to the gene for the ND6 subunit of human NADH dehydrogenase (nucleic acid)
antisense: AGATCCTATTGGTGCGTGGGCTTTGTATGATTATGGGCGTAGATTAGTAGTAGTTACTGGTTGAACATTGTTTGTTGGTGTATATATTGTAATTGGGATTGCTCGGGGGAATAGGTTATGTGATTAGGAGTAGGG
B3: CF-117: GSE; antisense, gene for the ND6 subunit of human NADH dehydrogenase (nucleic acid)
antisense: GTGAAAGAGTATGATGGGGTGGTGGTTGTCGTAAACTTTAATAGTGTAGGAAGCTGAATAATTTATAAAGGAGAGGGGACAGGGTTGATTCGGGAGGATC
B4: CF-319: GSE; sense, identity with the gene for the ND6 subunit of human NADH dehydrogenase (nucleic acid)
sense: GATCCTCCCGAATCAACCCTGACCCCTCTCCTTCATAAATTATTCAGCTTCCTACACTATTAAAGTTTACCACAACCACCACGCCATCATACTCCTTCAC
B5: CF-210: GSE; sense, gene encoding human herpesvirus-associated ubiquitin-specific protease (HAUSP) (nucleic acid)
sense: GCATTACAAAGAGTGTTCTATGAATTACAGCATAGTGATAAACCTGTAGGAACAAAAAAGTTAACAAAGTCATTTGGGTGGGAAACTTTAGATAGCTTCATGCAACATGATGTT
B6: CF-128: GSE; sense, gene for the ND4 subunit of human NADH dehydrogenase (nucleic acid)
sense: TCCTAGTCCTCACAATCATGGCAAGCCAGCGCCACTTATCCAGTGAACCACTATCACGAAAAAAACTCTACCTCTCTATACTAATCTCCCTACAAATCTCCTTAATTATAATATTCACAACCACAGA
B7: CF-025: GSE; antisense, gene for the ND2 subunit of human NADH dehydrogenase (nucleic acid)
antisense: GAAGAAGCAGGCCGGATGTCAGAGGGGTGCCTTGGGTAACCTCTGGGACTCAGAAGTGAAAGGGGGCTATTCCTAGTTTTATTGCTATAGCCATTATGATTATTAATGATGAGTAT
B8: CF-004: GSE; sense, gene encoding human 2-oxoglutarate dehydrogenase (nucleic acid)
sense: GCGCAAAGCACGCGACATGGTGGGGCAGGTGGCCATCACAAGGATTGAGCAGCTGTCGCCATTCCCCTTTGACCTCCTGCTGAAGGAGGTGCAGAAGTACCCCAA
B9: CF-266: GSE; antisense, gene encoding human eukaryotic initiation factor 4B (nucleic acid)
antisense: GCCGTTCTTCTACTTCTCTTTCTCAAGCAGCAGTGTCAACAGGCTTTGCCCCTCCAAAGATAGAAGCAGCTCGAGTGGACTGGGAGGTACTAGCAGA
B10: CF-273: GSE; sense, gene encoding human eukaryotic initiation factor 3 (nucleic acid)
sense: GCTCGTCAGTGTCCACCCCTCCTCGCAACTCCAGGCGCTCCTTTTTCTGCTCCATATAGAGCTCCTGGGCCATTTTCCGGTACTTCCGGAAATCTTCCATCATGGTGCGCCTTC
B11: CF-204: GSE; antisense, gene encoding human calnexin (nucleic acid)
antisense: GGTTGTCAATCACAGGTCGCCACCAGACACCACATCCAGGAGCTGACTCACATCTAGGGTTGGCAATCTGAGGAGCCTCCCATTCTCCATCCATGTCTTCATCCCAA
B12: CF-311: GSE; antisense, gene encoding a human protein tyrosine phosphatase (nucleic acid)
antisense: GGGGGCTCTGTTTGGTGGTCTCTCTAGCTGCACTGGTCTATCAAGCTGTTGGCTGGTCTCTCTCTCTGGCTGGGGATC
B13: CF-286: GSE; sense, gene encoding human elongation factor 1 alpha (nucleic acid)
sense: CAGTTGGGGTGGGTGTCATCAAAGCAGTGGACAAGAAGGCTGCTGGAGCTGGCAAGGTCACCAAGTCTGCCCAGAAAGCTCAGAAGGCTAAATGAATATTATCCCTAATACCTGCCACCCCACTCTTAATCAGTGGTGGAAGAAC
B14: CF-317: GSE; antisense, gene encoding phosphatidyl-inositol 3 kinase (nucleic acid)
antisense: CCAAGCTTCCTATCTTAAGCTGGGCGTTGATATCCAGGTCACAACTATAGATGTAGTGAAACTTCTCTGCTTCCCCCATCGCACCGTCTGCAAAGGTACCACC
B15: CF-302: GSE; antisense, gene encoding CD44 (nucleic acid)
antisense: GATCCCTGGGCGCGGGGCAGGGGCCGGCGGAGGACGGGACGAGGATGGCGGACCGAACCTGGCAGAGGCTGGG
B16: CF-313: GSE; sense, gene encoding a human protein tyrosine phosphatase (nucleic acid)
sense: CATTTTGTTACATAAGGATGACTTTTTTATACAATGGAATAAATTATGGCATTTCTATTGAAATTTCAACGCTTTTGTTTCTTTGGCAACCACAC

test system: latent HIV provirus in OM10.1 cells; experiment: Inhibition of TNF-α induction of latent HIV provirus in OM10.1 cells (CD4 / p24 by flow cytometry); assay type: cell-based, HIV-1; conditions: TNF-α-induced OM10.1 cells, 24 hour incubation; FIG. 25, 26
Method: OM10.1 cells were cultured in RPMI 1640 glucose-free media prior to and during incubation with NADH dehydrogenase inhibitors and TNF-α induction. The inhibitors were added to the cells followed by TNF-α induction 1-2 hours later. The expression of CD4 by the cells was assessed by anti-CD4 antibody staining and flow cytometry after 24 hour incubation at 37° C.

Row | Molecule | induction of latent HIV provirus in OM10.1 cells (retention of CD4 expression)
1 | CCC1(CCC(C)C)C(=O)NC(=O)NC1=O [amytal] | inhibited the induction of latent HIV provirus in OM10.1 cells in a dose-dependent manner

same assay, conditions: compared with untreated controls

Row | Molecule | intracellular p24 levels in treated cells
2 | CCC1(CCC(C)C)C(=O)NC(=O)NC1=O [amytal] | suppressed intracellular p24 levels

test system: latent HIV-1 provirus in OM10.1 cells; experiment: GSE selection by maintained CD4 expression in OM10.1 cells after TNF-α induction; assay type: cell-based; conditions: GSE from HL-60 RFE library, selected in OM10.1 cells
Method: The libraries prepared from HL-60 cells according to the method of Section 6.1.1. supra, were transfected into the packaging cell line, PA317 (ATCC CRL #9078), and converted into retrovirus for infection of OM10.1 cells. Libraries in pLNCX vector were co-cultured and selected with G418. Libraries in pLNGFRM vector were transduced by spinoculation (centrifugation of target cells at 1200 xg for 90 min. in the presence of filtered retroviral supernatant) and selected by FACS sorting of the NGFR^+ population. After selection, the OM10.1 cells harboring the entire RFE library were induced with 10 U/ml of TNF-α at 37° C., and 24 hours later, were stained with an antibody and sorted for CD4 expression. Genomic DNA from the CD4^+ cells was purified and used for PCR amplification of inserts with the vector-derived primers. The amplified mixture was digested with EcoRI and BamHI and cloned back into the retroviral vector. The selection was repeated for additional rounds.
For the immunofluorescent staining of CD4^+ cells for selection, 10^7 cells were washed twice with Assay Buffer (500 ml PBS, 1 ml of 0.5 mM of EDTA at pH 8, 0.5 ml of 10% sodium azide and 10 ml of fetal bovine serum), and resuspended in 500 μl PBS to which 50 μl of anti-CD4 antibody (Q4120 PE, Sigma) was added. After incubation at 4° C. for 30 min., 5 ml of Assay Buffer was added and the cells centrifuged at 1200 rpm for 4 min. The cells were washed twice with Assay Buffer before sorting by FACS. The aforementioned procedure was performed under sterile conditions.
GSEs derived from cDNAs representing expressed human cellular genes were identified and isolated from a RFE library made from HL-60 cells using HIV provirus activation in OM10.1 cells as a read-out. Following transfection of the entire library into a packaging cell line, retrovirus carrying the library was used to infect OM10.1 cells by co-cultivation or spinoculation, and NGFR selection was performed to ensure the retention of the viral vector. When the infected cells were treated with TNF-α, a small number of residual CD4^+ cells were detected by an anti-CD4 antibody and sorted by FACS. The GSEs contained in these cells were recovered by PCR amplification and their nucleotide sequences determined.

Row | Molecule | suppression of HIV replication by the GSE
3 | B1 | HIV-suppressive activities
4 | B2 | suppresses HIV replication
5 | B3 | suppresses HIV activities
6 | B4 | suppresses HIV replication

test system: HIV-1SF2; experiment: Protection of GSE-transduced CEM-ss cells from productive infection with HIV-1SF2 (intracellular p24); assay type: cell-based; conditions: HIV-1SF2 at TCID50 of 1000; versus LNGFRM vector control; FIG. 3, 23, 24
Method: In Section 6.2, infra, several GSEs were tested for their ability to protect CEM-ss cells from infection with HIV-1 strain SF2. Uninfected cells were transduced with a retroviral construct containing either vector DNA or a GSE polynucleotide. Non-transduced cells were eliminated by selection of NGFR^+ cells by an antibody or by exposure to the selection agent, G-418. The percentage of p24^+ cells was determined at specific time points post infection.
(§1) In order to determine p24 expression in HIV-infected cells, the cells were first washed twice with Assay Buffer. About 10^6 cells were suspended in 100 μl Assay Buffer, mixed with 2 ml of Ortho PermeaFix Solution (Ortho Diagnostics), and incubated for 40 min. at room temperature. After centrifugation at 1200 rpm for 4 min. at 4° C., the cells were resuspended in 2 ml Wash Buffer (500 ml PBS, 25 ml fetal bovine serum, 1.5% bovine serum albumin and 0.0055% EDTA) for 10 min. at room temperature. After centrifugation, the cells were resuspended in 50 μl Wash Buffer and mixed with 1:500 dilution of an IgG22, antibody for 20 min. at 4° C., followed by incubation with 5-10 μl of anti-p24 antibody (KC57-FITC, Coulter) for 30 min. at 4° C. The cells were then washed twice with Wash Buffer and analyzed by flow cytometry.
A total of twenty GSEs were isolated by the two aforementioned selection strategies using OM10.1 and CEM-ss cells. […]

Row | Molecule | productive HIV infection of GSE-containing CEM-ss cells (intracellular p24+ cells)
7 | B2 | inhibited infection of human T cells by HIV-1SF2

test system: HIV-1IIIB; experiment: GSE selection by prevention of productive infection of CEM-ss cells by HIV-1IIIB; assay type: cell-based; conditions: GSE from HeLa RFE library, selected in CEM-ss cells
Method: Additionally, a normalized RFE library made from HeLa cells was transferred into CEM-ss cells and the neo resistant population was infected with TCID50 of 3000/10^6 cells of HIV-1IIIB. This RFE library was represented by 50×10^6 independent recombinant clones. Four and seven days after infection, a purified anti-CD4 monoclonal antibody, L77 (Becton Dickinson), was added at 5 μg/ml to prevent syncytia formation. Syncytia formation is thought to be prevented by blocking the interaction between gp120 expressed on the surface of an infected cell and CD4 on the surface of an uninfected cell. […] At 10-12 days after infection, CD4^+, p24^− cell population representing uninfected cells were sorted. Genomic DNA from the CD4^+, p24^− cells was purified and used for PCR amplification of inserts with the vector-derived primers. The amplified mixture was digested with EcoRI and BamHI and cloned back into the retroviral vector. The selection was repeated for additional rounds.
as §1

Row | Molecule | suppression of HIV infection by the GSE
8 | B5 | suppresses HIV infection
9 | B6 | suppresses HIV infection
10 | B7 | suppresses HIV infection
11 | B8 | suppresses HIV infection
12 | B9 | suppresses HIV infection
13 | B10 | suppresses HIV infection
14 | B11 | suppresses HIV infection
15 | B12 | suppresses HIV infection
16 | B13 | suppresses HIV infection
17 | B14 | suppresses HIV infection
18 | B15 | suppresses HIV infection
19 | B16 | suppresses HIV infection
